In the DeepSol protein solubility set:

Assay: soluble on expression in E. coli; label from the status in PepcDB or PDB records

Sequence | soluble on expression in E. coli
MIGRERMTVASQRLIAERTYELTLSGRLVQEMRQPGQFVHVKVAASADPLLRRPLSLCHIDHKQGQCTIIYRQEGKGTALLAQKQPGDTVDVLGPLGNGFPLEAAPADSRALLVGGGIGVPPLYELAKQLTKRGVKVVSVLGFQTKAAVFYEEEFAAFGETHVATDDGSHGTAGRVTDVIEARSLEFDVLYACGPKPMLRALAERFPNRPVYLSLEERMGCGVGACFACVCHVPGSETAYKKVCSDGPVFRAGEVVL | soluble
MGSDKIHHHHHHMVLLETNRLRLQTIDIPLLDAASKQDHQAIKELGYETNGEWPNSDFFEAIPYFREILVKNNGTKGFDSWIIVKKDNYEIVGGTGFLGDPDENGMIEIGFATNKSHRRKGYCVEAAQKLINWALSRETVSRITARCEHDNLGSQKTLEKLGFILNHKSAEYKHWIYVTK | not soluble
MSLSKREEWAQGFILNLQSGYTQGTVGFGLDAMGMLGVKLDSGRGRSGTGLLPKDSDGRAPDTYSKLGLTAKVKVSQSELKVGTLIPKLPSVQPNNGRIFPQIFEGALLTSKEIKDLGFTAGRLEKTKIRDSSDSEDLALNDKNGRFAGVSADHFDLGGLDYKLTDQLTASYHYSNLQDVYRQHFVGLLHSWPIGPGELTSDLRFARSTDSGSAKAGGIDNKSLNGMFTYSLGNHAFGAAWQRMNGDDAFPYLEGSNPYLVNFVQVNDFAGPKERSWQLRYDYDFVGLGIPGLTFMTRYVKGDNVELAGQSGEGREWERNTELQYVFQSGALKNLGIRWRNATFRSNFTRDIDENRLIVSYTLPIWEGHHHHHH | not soluble
ALSGGFIKGFAHLGVIQALLEHDIKPDIISGVSAGALAGVFYADGNEPYRVLDYFSGHKFQDLTKLVIPKVGLFALGEFIDFLKSNLKAQKLEDLKLPLIITATDLDHGRSMHFHKGNIAERVAASCCMPVLFTPVKIGNTHYVDGGLLMNLPVSTIRNECEKVVAVNVSPLMAEKYKMNIVSIAMRSYHFMFRANTFPERDNCDLLIEPYNLEGYSNTELEKAEEIFEQGYNTASE | not soluble
MGRIISSYIFPHPPLIVPEIGKGDEKGAIKTIEACEKAAEQIRKEKPSTIILTTSHAPLFEDYIFINDHKTLKGNFSRFGARKVELGFENNLKMVESIIEFAKKEGFDAGGISEGIGRRYGISGELDHGALVPLYYISRVYSDFKLVHVAMSTLTLEEHYKFGMCIGEAVRNSDEDVVFVASGDLAHRLTSDGPYGYNKHAPEFDELLVKSIEKDDIDRILDIDDKLRDEAAECGLRSFVIMLGALDGYSVVPEVYSYEGPFGVGYMVARIGVGAMDSSRRIIENRRNKRKKSTDPYVSLAKRALEAYVTEGRVLDDYSGLPEEMLNSRAGTFVSIKKKGELRGCIGTIGPTRKNIASEIVHNAISAGTSDPRFYPVKPYELDELEYSVDVLMEPEEINSMDELDVVKYGVIVRAGRRTGLLLPNLENVNTVEQQVSIALQKAGISPNEKYTMERFEVIRHK | not soluble
MKLIRKYHMIPYENGSEYESAKRFLENILSASDVDPTTKCRFYQDVLYRIRNHPELPIVTEELFDVIQENLQQQNDNQKRNVKLERRNLKYEVIPEKRESYQEKYYESPPVYKAENEQLFDDVTYHNDGINHLKPRKNVYIKEEPEDEDYHMEYEKIPEINMEQNVNELFMEPQKHAPGKIKKSKKQKKDGTLSRPLGKKEKKSVQYATSNKRQKFDLKRGKSMNNVKPRKLYKLQLDEEDEDEEPMVDETPQNTEISIKKRPFQQDSTKNLNKRQKFDLKRRKNMSRVRPNKIYKMQNLKRNISSTIPDNGTNIPAAKRRVLHGSGSAPPPGSRVYCRLWKF | not soluble
SPAPAATYERVVYKNPSEYHYMKVCLEFQDCGVGLNAAQFKQLLISAVKDLFGEVDAALPLDILTYEEKTLSAILRICSSGLVKLWSSLTLLGSYKGKKCAFRVIQVSPFLLALSGNSRELVLD | soluble
MGSDKIHHHHHHMQNHVISLASAAERRAHITDTFGVRGIPFQFFDALMPSERLEQAMAELVPGLSAHPYLSGVEKACFMSHAVLWKQALDEGLPYIAVFEDDVLLGEGAEKFLAEDAWLQERFDPDSAFIVRLETMFMHVLTSPSGVADYCGRAFPLLESEHWGTAGYIISRKAMWFFLDRFAALPSEGLHPVDWMMFGNPDDRERMPVCQLNPALCAQELHYAKFHDQNSALGSLIEHDRCLNSKQQRRDSPANTFKHRLIRALTKISREREKRRQRREQLIGKIIVPFQ | not soluble
MAHHHHHHSLSLKGFVKVERRMADRTIKMLQSRGYFDSDYEIRHEGDYVLIPVKDGFTGPVVVKDAEKKPKVIPASGSFDIIGTIAITKKDDVEFAKEILKTHKNIKSVYLDKGVKGKERIRDLVLLAGIDSTVALYRENGCIFKIDVSKSYFSPRLATERRRLVDSILDGEFIVDMFAGSGPISIEVAKKRRVKIISIDINCAAIESLQESMRLNSLLGTITPICGDARQLIKDIHDADRIIMNHPTDAFSFLPCALEALKYGGHINYYEILNKDDVTKRLADFNFMRLKVFSYHRVHSYSKLSDLISFDLIREGEG | soluble
MGSDKIHHHHHHMGGIYRLSLKSTEATAERLSCDTRCNYEDRDLAYSPDGRWLAIARRFSNISEDIFIRDLASAHEKRLTQGLEDIRGLSWTPDSQALVFATEDSGSSNGFTLDINTAQIRSLDVEGMSYPSSVSAEGELVYHQYHRQFQMAYFSLGDKVPGSLFPLLYSGVSHRNPDYSPEAKRIVFVSSETGYNEIWTSDINGQKLEQLTQLKSRVAYPRWSPDGSRIAFIAPDDRNEGNRIFILDLTNKNITALASSYHNHGRPSWNWQGTAVLASTADGITEFYLDNRAPRVISSLSMAVGFAKSATELVFSRDGENGLWQINLTQPEHVEQLISTDAFRAGNNWVLTASGVYFKSSNGHEQLLNYWEASSQQVTSLLRVPRSSLSGFGSMTYIPEANRLVMTLDGFPQRDIILLKHKLLK | not soluble
MAGDPMMKKDKDTNDQKSESHMKHNDESKVPEDMTSTNEGEFKVGDKVTITAGHMPGMKGAEATVKGAYKTYAYVVSYKPTNGNEKVNNHKWVVNEEIKDAPKDGFSKDDTVKLEANHMSGMKGATANIDNVKKTTVYVVDYKSKDNGKIIKNHKWMTGNELKARLEHHHHHH | soluble
MSLDIARIAVHESVAKACPLEAMVAALQGPDVRVETVGDDASFDASDCVVTFSPREAFLDAAWVHGIRAGYDEFDVDAYEAAGTVLTNSTGIHGDTVPETVVGYLTAFARRLHVYRDRQRDNDWTQEPYDAPFTLTGEQVCVVGLGTIGQGVADRTDALGMDVVGVRRSGDPAENVERVYTPDELDAAVADARFVVLCCPLTEETEGMVDAALLAQMRADSYLVNVARGPVVVEDALLNALDTGTIAGAALDAHWAEPLPDDHPLWNHESAIVTPHVAAATSRYHEDIAALVRENVERATRGESLRNRVAEGHHHHHH | not soluble
PLGSKDNRLLYPKTKIDWGPGENHICLKTPFKNFYVIELFHQAPTFDKTIPLFISDINNSPNLYGIYNYIADHLRHVVLVNNYPVNQINIFGKIVYEQYKEKEFNGVEESYVILVISDFIGIDSKIRVRLSQEQFKEVGLTLDKKNYGKIVELEGEIYNWYDSINVSKKPDRELKVSKITVLSHRPDGLHFEFEQWKKRMEFRKNNLVEPWVFIPTPQRE | soluble
MNYQNDDLRIKEIKELLPPVALLEKFPATENAANTVAHARKAIHKILKGNDDRLLVVIGPCSIHDPVAAKEYATRLLALREELKDELEIVMRVYFEKPRTTVGWKGLINDPHMDNSFQINDGLRIARKLLLDINDSGLPAAGEFLDMITPQYLADLMSWGAIGARTTESQVHRELASGLSCPVGFKNGTDGTIKVAIDAINAAGAPHCFLSVTKWGHSAIVNTSGNGDCHIILRGGKEPNYSAKHVAEVKEGLNKAGLPAQVMIDFSHANSSKQFKKQMDVCADVCQQIAGGEKAIIGVMVESHLVEGNQSLESGEPLAYGKSITDACIGWEDTDALLRQLANAVKARRG | soluble
MICTPKVGLNNQLTKVQFFMTKYNFLFKQQVIEFYLQNDKNSSLTRRHFQLAETTLERWINQFNHSGINGLALLGKKRNYSPEFKLNVIQAVKNGKFSAEAACLHFGIANSGVVSQWLQAFEKQGINGLIPKPKGRPTMKLQYPKMPPKPKTREEELELENLRLRAENAILKKLQELNQQKMQKKPLSLEHHHHHH | not soluble
